T1: biotinylated-MADCAM-1 antigen (human, UniProt Q13477 19-317, limits assumed, biotinylated (site not stated))
T1 construct: The BLI paragraph says only 'biotinylated-MADCAM-1 antigen'; also called mucosal addressin cell adhesion molecule 1
T1 sequence (looked up): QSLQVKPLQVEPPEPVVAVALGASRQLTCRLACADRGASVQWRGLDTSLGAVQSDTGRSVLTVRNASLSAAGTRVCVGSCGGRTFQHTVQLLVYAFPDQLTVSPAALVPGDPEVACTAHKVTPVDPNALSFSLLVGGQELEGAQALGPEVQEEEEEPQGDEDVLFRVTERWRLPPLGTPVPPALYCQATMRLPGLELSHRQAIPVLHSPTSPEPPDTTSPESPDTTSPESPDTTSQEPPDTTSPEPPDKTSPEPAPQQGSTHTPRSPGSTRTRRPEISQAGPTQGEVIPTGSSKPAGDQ


Each binder was assayed against T1, biotinylated-MADCAM-1 antigen (assay: BLI, biotinylated MADCAM-1 on streptavidin biosensors, scFv titrated, global 1:1 fit).
Method: Binding affinity (KD) of MADCAM-1 scFv antibodies from Table 2 was measured using biolayer interferometry (See also FIG. 6). Streptavidin biosensors were loaded for 5 seconds with 10 Tg/mL biotinylated-MADCAM-1 antigen followed by acquisition of the baseline signal in phosphate buffer saline supplemented with bovine serum albumin and sodium azide. For the association step loaded probes were incubated for 250 seconds with a titration of anti-MADCAM-1 scFv antibodies at concentrations generally between 0 nM and 2 TM. This was followed by a dissociation step in buffer lacking anti-MADCAM-1 scFv for 250 seconds. Experimental data was normalized to a reference probe and high-frequency noise was removed by Savitzky-Golay filtering. On and off-rate constants were determined using a globally fitted 1:1 binding model.

| Binder | Kd | koff | kon |
| --- | --- | --- | --- |
| MAdCAM1 scFv 17.7 (scFv, Humanized rabbit-derived scFv, VH-(G4S)3-VL) scFv: EVQLVESGGGLVKPGGSLRLSCAASGFSFSSTYYMCWVRQAPGKGLEWVSCIYTGSGNTDYASWAKGRFTISRDNAKNSLYLQMNSLRAEDTAVYYCARGGIVDSYFTYFDLWGQGTLVTVSSGGGGSGGGGSGGGGSDIQMTQSPSTLSASVGDRVTITCQASESIFSNLAWYQQKPGKAPKLLIYWASTLASGVPSRFSGSGSGTEFTLTISSLQPDDFATYYCQSYVYSSSSSNDFGGGTKVEIK | 1.8 nM | 0.000537 s⁻¹ | 300000 M⁻¹ s⁻¹ |
| MAdCAM1 scFv 17.3 (scFv, Humanized rabbit-derived scFv, VH-(G4S)3-VL) scFv: QVQLLESGGGLVKPGGSLRLSCAASGFSFSSTYYMCWIRQAPGKGLEWVSCIYTGSGNTDYASWAKGRFTISRDNAKNSLYLQMNSLRAEDTAVYYCARGGIVDSYFTYFDLWGQGTLVTVSSGGGGSGGGGSGGGGSDIQMTQSPSTLSASVGDRVTITCQASESIFSNLAWYQQKPGKAPKLLIYWASTLASGVPSRFSGSGSGTEFTLTISSLQPDDFATYYCQSYVYSSSSSNDFGGGTKVEIK | 2.9 nM | 0.000868 s⁻¹ | 304000 M⁻¹ s⁻¹ |
| MAdCAM1 scFv 17.1 (scFv, Humanized rabbit-derived scFv, VH-(G4S)3-VL) scFv: EVQLVESGGGLVQPGGSLRLSCAASGFSFSSTYYMCWVRQAPGKGLEWVSCIYTGSGNTDYASWAKGRFTISRHNSKNTLYLQMNSLRAEDTAVYYCARGGIVDSYFTYFDLWGQGTLVTVSSGGGGSGGGGSGGGGSDIQMTQSPSTLSASVGDRVTITCQASESIFSNLAWYQQKPGKAPKLLIYWASTLASGVPSRFSGSGSGTEFTLTISSLQPDDFATYYCQSYVYSSSSSNDFGGGTKVEIK | 2.3 nM | 0.000568 s⁻¹ | 247000 M⁻¹ s⁻¹ |
| MAdCAM1 scFv 32.3 (scFv, Humanized rabbit-derived scFv, VH-(G4S)3-VL) scFv: EVQLLESGGGLVQPGGSLRLSCAASGFSFSSSYWICWVRQAPGKGLEWVSCIYGGSSGATYYANWAKGRFTISRDNSKNTLYLQMNSLRAEDTAVYYCARSGSTTSGGVYRWYFNLWGQGTLVTVSSGGGGSGGGGSGGGGSDIQMTQSPSSLSASVGDRVTITCQASENIYNLLAWYQQKPGKVPKLLIYDASTLQSGVPSRFSGSGSGTDFTLTISSLQPEDVATYYCQFTYYGGTYESAFGGGTKVEIK | 12.1 nM | 0.00491 s⁻¹ | 407000 M⁻¹ s⁻¹ |
| MAdCAM1 scFv 32.4 (scFv, Humanized rabbit-derived scFv, VH-(G4S)3-VL) scFv: EVQLLESGGGLVQPGGSLRLSCAASGFSFSSSYWICWVRQAPGKGLEWVSCIYGGSSGATYYANWAKGRFTISRDNSKNTLYLQMNSLRAEDTAVYYCARSGSTTSGGVYRWYFNLWGQGTLVTVSSGGGGSGGGGSGGGGSDIQMTQSPSSLSASVGDRVTITCQASENIYNLLAWYQQKPGKAPKLLIYDASNLETGVPSRFSGSGSGTDFTFTISSLQPEDIATYYCQFTYYGGTYESAFGGGTKVEIK | 18.7 nM | 0.0108 s⁻¹ | 577000 M⁻¹ s⁻¹ |
| MAdCAM1 scFv 8.2 (scFv, Humanized rabbit-derived scFv, VH-(G4S)3-VL) scFv: EVQLVESGGGLVQPGGSLRLSCAASGFTLSSSYYMYWVRQAPGKGLEWVSVIYAGDGNTYYASWAKGRFTISRDNSKNTLYLQMNSLRAEDTAVYYCARGYVGYGYAIDLWGQGTLVTVSSGGGGSGGGGSGGGGSAIQLTQSPSSLSASVGDRVTITCQASQSIYSSLAWYQQKPGKAPKLLIYYASILPSGVPSRFSGSGSGTDFTLTISSLQPEDFATYYCQATTYDSTYPNAFGGGTKVEIK | 78 nM | 0.00295 s⁻¹ | 37800 M⁻¹ s⁻¹ |
| MAdCAM1 scFv 8.8 (scFv, Humanized rabbit-derived scFv, VH-(G4S)3-VL) scFv: EVQLVETGGGLIQPGGSLRLSCAASGFTLSSSYYMYWVRQAPGKGLEWVSVIYAGDGNTYYASWAKGRFTISRDNSKNTLYLQMNSLRAEDTAVYYCARGYVGYGYAIDLWGQGTLVTVSSGGGGSGGGGSGGGGSAIQLTQSPSSLSASVGDRVTITCQASQSIYSSLAWYQQKPGKAPKLLIYYASILPSGVPSRFSGSGSGTDFTLTISSLQPEDFATYYCQATTYDSTYPNAFGGGTKVEIK | 311 nM | 0.00696 s⁻¹ | 22400 M⁻¹ s⁻¹ |
| MAdCAM1 scFv 8.5 (scFv, Humanized rabbit-derived scFv, VH-(G4S)3-VL) scFv: QVQLVESGGGVVQPGRSLRLSCAASGFTLSSSYYMYWVRQAPGKGLEWVAVIYAGDGNTYYASWAKGRFTISRDNSKNTLYLQMNSLRAEDTAVYYCARGYVGYGYAIDLWGQGTLVTVSSGGGGSGGGGSGGGGSDIQMTQSPSTLSASVGDRVTITCQASQSIYSSLAWYQQKPGKAPKLLIYYASILPSGVPSRFSGSGSGTEFTLTISSLQPDDFATYYCQATTYDSTYPNAFGGGTKVEIK | 114 nM | 0.00158 s⁻¹ | 13800 M⁻¹ s⁻¹ |
| MAdCAM1 scFv 8.4 (scFv, Humanized rabbit-derived scFv, VH-(G4S)3-VL) scFv: EVQLLESGGGLVQPGGSLRLSCAASGFTLSSSYYMYWVRQAPGKGLEWVSAIYAGDGNTYYASWAKGRFTISRDNSKNTLYLQMNSLRAEDTAVYYCARGYVGYGYAIDLWGQGTLVTVSSGGGGSGGGGSGGGGSAIQLTQSPSSLSASVGDRVTITCQASQSIYSSLAWYQQKPGKAPKLLIYYASILPSGVPSRFSGSGSGTDFTLTISSLQPEDFATYYCQATTYDSTYPNAFGGGTKVEIK | 30.9 nM | 0.000393 s⁻¹ | 12700 M⁻¹ s⁻¹ |
| MAdCAM1 scFv 32.6 (scFv, Humanized rabbit-derived scFv, VH-(G4S)3-VL) scFv: QVQLVESGGGVVQPGRSLRLSCAASGFSFSSSYWICWVRQAPGKGLEWVACIYGGSSGATYYANWAKGRFTISRDNSTNTLFLQMNSLRAEDTAVYYCARSGSTTSGGVYRWYFNLWGQGTLVTVSSGGGGSGGGGSGGGGSDIQMTQSPSSLSASVGDRVTITCQASENIYNLLAWYQQKPGKAPKLLIYDASNLETGVPSRFSGSGSGTDFTFTISSLQPEDIATYYCQFTYYGGTYESAFGGGTKVEIK | 6.7 nM | 0.00219 s⁻¹ | 327000 M⁻¹ s⁻¹ |

Further binders by falling Kd, results first:

| Kd | koff | kon | Binder |
| --- | --- | --- | --- |
| 258 nM | 0.00428 s⁻¹ | 16600 M⁻¹ s⁻¹ | MAdCAM1 scFv 8.7 (scFv, Humanized rabbit-derived scFv, VH-(G4S)3-VL) scFv: EVQLVETGGGLIQPGGSLRLSCAASGFTLSSSYYMYWVRQAPGKGLEWVSVIYAGDGNTYYASWAKGRFTISRDNSKNTLYLQMNSLRAEDTAVYYCARGYVGYGYAIDLWGQGTLVTVSSGGGGSGGGGSGGGGSDIQMTQSPSTLSASVGDRVTITCQASQSIYSSLAWYQQKPGKAPKLLIYYASILPSGVPSRFSGSGSGTEFTLTISSLQPDDFATYYCQATTYDSTYPNAFGGGTKVEIK |
| 89.9 nM | 0.00186 s⁻¹ | 20700 M⁻¹ s⁻¹ | MAdCAM1 scFv 8.1 (scFv, Humanized rabbit-derived scFv, VH-(G4S)3-VL) scFv: EVQLVESGGGLVQPGGSLRLSCAASGFTLSSSYYMYWVRQAPGKGLEWVSVIYAGDGNTYYASWAKGRFTISRDNSKNTLYLQMNSLRAEDTAVYYCARGYVGYGYAIDLWGQGTLVTVSSGGGGSGGGGSGGGGSDIQMTQSPSTLSASVGDRVTITCQASQSIYSSLAWYQQKPGKAPKLLIYYASILPSGVPSRFSGSGSGTEFTLTISSLQPDDFATYYCQATTYDSTYPNAFGGGTKVEIK |
| 84.8 nM | 0.00218 s⁻¹ | 25700 M⁻¹ s⁻¹ | MAdCAM1 scFv 8.6 (scFv, Humanized rabbit-derived scFv, VH-(G4S)3-VL) scFv: QVQLVESGGGVVQPGRSLRLSCAASGFTLSSSYYMYWVRQAPGKGLEWVAVIYAGDGNTYYASWAKGRFTISRDNSKNTLYLQMNSLRAEDTAVYYCARGYVGYGYAIDLWGQGTLVTVSSGGGGSGGGGSGGGGSAIQLTQSPSSLSASVGDRVTITCQASQSIYSSLAWYQQKPGKAPKLLIYYASILPSGVPSRFSGSGSGTDFTLTISSLQPEDFATYYCQATTYDSTYPNAFGGGTKVEIK |
| 23.8 nM | 0.00991 s⁻¹ | 416000 M⁻¹ s⁻¹ | MAdCAM1 scFv 32.7 (scFv, Humanized rabbit-derived scFv, VH-(G4S)3-VL) scFv: EVQLVESGGGLVQPGGSLRLSCAASGFSFSSSYWICWVRQAPGKGLEWVSCIYGGSSGATYYANWAKGRFTISRHNSKNTLYLQMNSLRAEDTAVYYCARSGSTTSGGVYRWYFNLWGQGTLVTVSSGGGGSGGGGSGGGGSDIQMTQSPSSLSASVGDRVTITCQASENIYNLLAWYQQKPGKVPKLLIYDASTLQSGVPSRFSGSGSGTDFTLTISSLQPEDVATYYCQFTYYGGTYESAFGGGTKVEIK |
| 15.5 nM | 0.0083 s⁻¹ | 534000 M⁻¹ s⁻¹ | MAdCAM1 scFv 32.8 (scFv, Humanized rabbit-derived scFv, VH-(G4S)3-VL) scFv: EVQLVESGGGLVQPGGSLRLSCAASGFSFSSSYWICWVRQAPGKGLEWVSCIYGGSSGATYYANWAKGRFTISRHNSKNTLYLQMNSLRAEDTAVYYCARSGSTTSGGVYRWYFNLWGQGTLVTVSSGGGGSGGGGSGGGGSDIQMTQSPSSLSASVGDRVTITCQASENIYNLLAWYQQKPGKAPKLLIYDASNLETGVPSRFSGSGSGTDFTFTISSLQPEDIATYYCQFTYYGGTYESAFGGGTKVEIK |
| 5.4 nM | 0.00146 s⁻¹ | 272000 M⁻¹ s⁻¹ | MAdCAM1 scFv 32.5 (scFv, Humanized rabbit-derived scFv, VH-(G4S)3-VL) scFv: QVQLVESGGGVVQPGRSLRLSCAASGFSFSSSYWICWVRQAPGKGLEWVACIYGGSSGATYYANWAKGRFTISRDNSTNTLFLQMNSLRAEDTAVYYCARSGSTTSGGVYRWYFNLWGQGTLVTVSSGGGGSGGGGSGGGGSDIQMTQSPSSLSASVGDRVTITCQASENIYNLLAWYQQKPGKVPKLLIYDASTLQSGVPSRFSGSGSGTDFTLTISSLQPEDVATYYCQFTYYGGTYESAFGGGTKVEIK |
| 3.7 nM | 0.000967 s⁻¹ | 258000 M⁻¹ s⁻¹ | MAdCAM1 scFv 17.5 (scFv, Humanized rabbit-derived scFv, VH-(G4S)3-VL) scFv: QVQLVESGGGVVQPGRSLRLSCAASGFSFSSTYYMCWVRQAPGKGLEWVACIYTGSGNTDYASWAKGRFTISRDNSTNTLFLQMNSLRAEDTAVYYCARGGIVDSYFTYFDLWGQGTLVTVSSGGGGSGGGGSGGGGSDIQMTQSPSTLSASVGDRVTITCQASESIFSNLAWYQQKPGKAPKLLIYWASTLASGVPSRFSGSGSGTEFTLTISSLQPDDFATYYCQSYVYSSSSSNDFGGGTKVEIK |

From patent US20240158459A1 (KYVERNA THERAPEUTICS, published 2024)
